Data as given in patent US20240270821A1, “GIP/GLP1/GCG TRI-RECEPTOR AGONISTS AND USES THEREOF” (priority 2023, published 2024).

Experiments:
Experiment in all cases: cell-based or functional assay
[1] = target: T1, human GIP receptor (human) (UniProt P48546)
T1 sequence (looked up): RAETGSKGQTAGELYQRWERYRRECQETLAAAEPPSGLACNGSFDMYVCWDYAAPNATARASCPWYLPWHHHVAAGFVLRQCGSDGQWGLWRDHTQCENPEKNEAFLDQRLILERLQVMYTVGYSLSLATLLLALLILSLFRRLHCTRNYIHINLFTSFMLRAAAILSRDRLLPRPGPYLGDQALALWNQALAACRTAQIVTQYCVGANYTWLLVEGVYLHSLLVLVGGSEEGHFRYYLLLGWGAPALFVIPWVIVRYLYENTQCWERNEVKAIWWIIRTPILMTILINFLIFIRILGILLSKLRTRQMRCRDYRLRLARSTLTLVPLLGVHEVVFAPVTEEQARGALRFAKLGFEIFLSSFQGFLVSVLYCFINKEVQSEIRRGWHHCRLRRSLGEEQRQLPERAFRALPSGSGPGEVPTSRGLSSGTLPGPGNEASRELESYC

[2] = target: human glucagon receptor (human) (UniProt P47871)
human glucagon receptor (human), sequence (P47871 26-477): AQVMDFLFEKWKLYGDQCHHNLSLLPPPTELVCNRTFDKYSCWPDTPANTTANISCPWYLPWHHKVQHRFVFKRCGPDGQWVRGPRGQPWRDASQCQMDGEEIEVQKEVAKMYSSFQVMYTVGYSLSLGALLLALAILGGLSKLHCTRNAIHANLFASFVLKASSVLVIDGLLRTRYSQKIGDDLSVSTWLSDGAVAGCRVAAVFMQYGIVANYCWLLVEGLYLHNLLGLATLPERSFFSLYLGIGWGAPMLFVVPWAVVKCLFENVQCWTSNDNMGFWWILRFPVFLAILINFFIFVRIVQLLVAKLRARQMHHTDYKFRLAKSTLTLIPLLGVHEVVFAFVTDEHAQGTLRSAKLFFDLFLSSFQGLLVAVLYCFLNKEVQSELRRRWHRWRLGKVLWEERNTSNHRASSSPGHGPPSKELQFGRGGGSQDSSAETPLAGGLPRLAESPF

[3] = target: hGLP-1R (Homo sapiens, UniProt P43220)
hGLP-1R, sequence (P43220 24-463): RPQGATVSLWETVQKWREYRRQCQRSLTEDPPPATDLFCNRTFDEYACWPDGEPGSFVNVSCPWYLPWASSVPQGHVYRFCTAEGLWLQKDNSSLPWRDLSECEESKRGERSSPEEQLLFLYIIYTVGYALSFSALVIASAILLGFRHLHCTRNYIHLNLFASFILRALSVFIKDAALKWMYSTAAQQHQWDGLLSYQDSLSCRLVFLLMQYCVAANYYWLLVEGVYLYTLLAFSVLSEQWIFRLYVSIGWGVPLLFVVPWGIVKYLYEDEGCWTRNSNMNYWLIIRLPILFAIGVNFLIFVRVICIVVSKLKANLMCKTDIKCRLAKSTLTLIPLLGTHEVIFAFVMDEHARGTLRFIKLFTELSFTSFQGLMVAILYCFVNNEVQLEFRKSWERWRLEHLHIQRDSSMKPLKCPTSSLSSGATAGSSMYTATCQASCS

Binder	Relative cAMP EC50 [1]	cAMP Rel EC50, nM (1% HSA) [1]	Relative cAMP EC50 [2]	cAMP Rel EC50, nM (1% HSA) [2]	Relative cAMP EC50 [3]	cAMP Rel EC50, nM (1% HSA) [3]
YXQGTFTSDXSQXLDKKAQXAFIEYLIAGGPSSGEPPPSGS (non-natural residues; lipidated Lys (γGlu)2-C18 diacid; C-term amide; synthetic construct; SITE 2: note = 2-Aminoisobutyric Acid; SITE 10: note = 3-(4-Pyridyl)-L-alanine; SITE 13: note = alpha-methyl-leucine; SITE 17: note = Lysine is chemically modified through conjugation of the epsilon-amino group of the Lysine side chain with (gamma-Glu)2-CO-(CH2)16-CO2H; SITE 20:) [Example 968]	0.0928 nM	11.7 nM	4.72 nM	625 nM	1.04 nM	103 nM
YXQGTFTSDXSXXLDXKAQXAFIEYLIAGGPSSGEPPPSGE (Lys acylated (γ-Glu)2-C18 diacid; non-natural residues; C-terminal amide; synthetic construct; SITE 2: note = 2-Aminoisobutyric Acid; SITE 10: note = 3-(4-Pyridyl)-L-alanine; SITE 12: note = L-ornithine; SITE 13: note = alpha-methyl-leucine; SITE 16: note = L-ornithine; SITE 17: note = Lysine is chemically modified through conjugation of the epsilon-amino group of the Lys) [Example 983]	0.289 nM	19.4 nM	4.75 nM	576 nM	2.35 nM	207 nM
YXQGTFTSDXSXXLDKKAQXAFIEXLIEXGPSSGEPPPSGS (Aib, 4Pal, Orn, αMeL, Me4Pal, acylated K, C-terminal amide; synthetic construct; SITE 2: note = 2-Aminoisobutyric Acid; SITE 10: note = 3-(4-Pyridyl)-L-alanine; SITE 12: note = L-ornithine; SITE 13: note = alpha-methyl-leucine; SITE 17: note = Lysine is chemically modified through conjugation of the epsilon-amino group of the Lysine side chain with (2-[2-(2-) [Example 987]	0.194 nM	11.7 nM	3.62 nM	267 nM	6.33 nM	515 nM
YXQGTFTSDXSQXLDKKAQXAFIEYLIAGGPSSGAPPPEGS (non-natural residues, C18 diacid acylation; synthetic construct; SITE 2: note = 2-Aminoisobutyric Acid; SITE 10: note = 3-(4-Pyridyl)-L-alanine; SITE 13: note = alpha-methyl-leucine; SITE 17: note = Lysine is chemically modified through conjugation of the epsilon-amino group of the Lysine side chain with (gamma-Glu)2-CO-(CH2)16-CO2H; SITE 20:) [Example 969]	0.142 nM	12.6 nM	5.48 nM	660 nM	1.21 nM	113 nM
YXQGTFTSDXSXXLDKKAQXAFIEYLIAGGPSSGEPPPSGE (non-natural residues (Aib, 4Pal, Orn, αMeL, Me4Pal); lipidated K; amide; synthetic construct; SITE 2: note = 2-Aminoisobutyric Acid; SITE 10: note = 3-(4-Pyridyl)-L-alanine; SITE 12: note = L-ornithine; SITE 13: note = alpha-methyl-leucine; SITE 17: note = Lysine is chemically modified through conjugation of the epsilon-amino group of the Lysine side chain with (gamma-Gl)) [Example 979]	0.181 nM	19.2 nM	3.34 nM	359 nM	2.72 nM	257 nM
YXQGTFTSDXSXXLDKKAQXAFIEXLIEGGPSSGAPPPSGSE (acylated Lys (γGlu)2-C18 diacid; non-natural residues; C-terminal amide; synthetic construct; SITE 2: note = 2-Aminoisobutyric Acid; SITE 10: note = 3-(4-Pyridyl)-L-alanine; SITE 12: note = L-ornithine; SITE 13: note = alpha-methyl-leucine; SITE 17: note = Lysine is chemically modified through conjugation of the epsilon-amino group of the Lysine side chain with (gamma-Gl)) [Example 966]	–	35.9 nM	–	581 nM	–	257 nM
YXQGTFTSDXSXXLDKKAQXAFIEYLIAGGPSSGEPPPSGTE (non-natural residues (Aib, 4Pal, Orn, αMeL, Me4Pal); lipidated K; amide; synthetic construct; SITE 2: note = 2-Aminoisobutyric Acid; SITE 10: note = 3-(4-Pyridyl)-L-alanine; SITE 12: note = L-ornithine; SITE 13: note = alpha-methyl-leucine; SITE 17: note = Lysine is chemically modified through conjugation of the epsilon-amino group of the Lysine side chain with (gamma-Gl)) [Example 980]	0.18 nM	15.4 nM	2.41 nM	239 nM	2.26 nM	290 nM
YXQGTFTSDXSXXLDXKAQXAFIEYLIAGGPSSGEPPPSGTE (Aib, 4Pal, Orn, αMeL, Me4Pal; (γGlu)2-C18 diacid on Lys; amide; synthetic construct; SITE 2: note = 2-Aminoisobutyric Acid; SITE 10: note = 3-(4-Pyridyl)-L-alanine; SITE 12: note = L-ornithine; SITE 13: note = alpha-methyl-leucine; SITE 16: note = L-ornithine; SITE 17: note = Lysine is chemically modified through conjugation of the epsilon-amino group of the Lys) [Example 984]	0.232 nM	23.5 nM	4.5 nM	409 nM	2.07 nM	160 nM
YXQGTFTSDXSQXLDXKAQXAFIEYLIAGGPSSGEPPPSGSE (Aib, 4Pal, αMeL, Orn, Me4Pal; (γGlu)2-C18 diacid on Lys; synthetic construct; SITE 2: note = 2-Aminoisobutyric Acid; SITE 10: note = 3-(4-Pyridyl)-L-alanine; SITE 13: note = alpha-methyl-leucine; SITE 16: note = L-ornithine; SITE 17: note = Lysine is chemically modified through conjugation of the epsilon-amino group of the Lysine side chain with (gamma-Gl)) [Example 977]	0.189 nM	23 nM	7.18 nM	839 nM	1.1 nM	159 nM
YXQGTFTSDXSXXLDKKAQXAFIEXLIEGGPSSGAPPPSGSEE (Aib, 4Pal, Orn, αMeL, Me4Pal, acylated K, C-terminal amide; synthetic construct; SITE 2: note = 2-Aminoisobutyric Acid; SITE 10: note = 3-(4-Pyridyl)-L-alanine; SITE 12: note = L-ornithine; SITE 13: note = alpha-methyl-leucine; SITE 17: note = Lysine is chemically modified through conjugation of the epsilon-amino group of the Lysine side chain with (gamma-Gl)) [Example 958]	–	27.1 nM	–	340 nM	–	850 nM
YXQGTFTSDXSQXLDKKAQXAFIEYLIAGGESSGAPPPSGSEE (non-natural residues, C18 diacid-(γGlu)2 acyl on K, C-terminal amide; synthetic construct; SITE 2: note = 2-Aminoisobutyric Acid; SITE 10: note = 3-(4-Pyridyl)-L-alanine; SITE 13: note = alpha-methyl-leucine; SITE 17: note = Lysine is chemically modified through conjugation of the epsilon-amino group of the Lysine side chain with (gamma-Glu)2-CO-(CH2)16-CO2H; SITE 20:) [Example 963]	0.244 nM	25.1 nM	5.81 nM	900 nM	1.77 nM	215 nM
YXQGTFTSDXSXXLDXKAQXXFIEXLIEGGPSSGAPPPSGSEE (Aib, 4Pal, Orn, Me4Pal, alpha-methyl-Tyr, lipidated Lys, amide; synthetic construct; SITE 2: note = 2-Aminoisobutyric Acid; SITE 10: note = 3-(4-Pyridyl)-L-alanine; SITE 12: note = L-ornithine; SITE 13: note = alpha-methyl-leucine; SITE 16: note = L-ornithine; SITE 17: note = Lysine is chemically modified through conjugation of the epsilon-amino group of the Lys) [Example 974]	–	80.9 nM	–	870 nM	–	283 nM
YXQGTFTSDXSQXLDKKAQXAFIEYLIAGGPSSGEPPPSGSGE (non-natural residues; (γGlu)2-C18 diacid acyl; synthetic construct; SITE 2: note = 2-Aminoisobutyric Acid; SITE 10: note = 3-(4-Pyridyl)-L-alanine; SITE 13: note = alpha-methyl-leucine; SITE 17: note = Lysine is chemically modified through conjugation of the epsilon-amino group of the Lysine side chain with (gamma-Glu)2-CO-(CH2)16-CO2H; SITE 20:) [Example 971]	0.298 nM	30.2 nM	8.26 nM	1340 nM	3.46 nM	294 nM
YXQGTFTSDXSXXLDXKAQXAFIEYLIAGGPSSGEPPPSGTEE (non-natural residues, acylated Lys, C-terminal amide; synthetic construct; SITE 2: note = 2-Aminoisobutyric Acid; SITE 10: note = 3-(4-Pyridyl)-L-alanine; SITE 12: note = L-ornithine; SITE 13: note = alpha-methyl-leucine; SITE 16: note = L-ornithine; SITE 17: note = Lysine is chemically modified through conjugation of the epsilon-amino group of the Lys) [Example 985]	0.34 nM	24 nM	5.41 nM	374 nM	2.93 nM	217 nM
